Results taken from publication PMC3518043.

Target: Histone H3 N-terminal peptide trimethylated at lysine-4 (celluspot peptide #1)
Assay: peptide or protein array

Sequence of GST-tagged CHD5 PHD2 finger (413-468) (Q8TDI0 413-468): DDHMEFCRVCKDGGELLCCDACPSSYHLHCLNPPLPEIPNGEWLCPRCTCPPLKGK
Sequence of GST-tagged CHD5 PHD1 finger (338-393) (Q8TDI0 338-393): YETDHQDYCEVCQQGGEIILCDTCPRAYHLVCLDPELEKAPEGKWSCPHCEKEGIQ

| Substance | decrease in signal against unmodified H3 [%] |
| --- | --- |
| GST-tagged CHD5 PHD2 finger (413-468) (from UniProt Q8TDI0 413-468) (domain or fragment) | > 90 |
| GST-tagged CHD5 PHD1 finger (338-393) (from UniProt Q8TDI0 338-393) (domain or fragment) | > 90 |
